Measurements published in US10077295B2, “Glycoproteins having lipid mobilizing properties and therapeutic uses thereof” (Aston University, priority 2010, dated 2018).

Legend:
[1] = tested on: skeletal muscle of ob/ob mice; assay: Protein synthesis and degradation in skeletal muscle of ZAG-treated ob/ob mice; assay type: in vivo, mouse; settings: ob/ob mice treated 5 days
Method: Protein Synthesis and Degradation in Muscle. The method for the determination of protein synthesis and degradation in muscle has been previously described (Smith, K. L. & Tisdale, M. J. Increased protein degradation and decreased protein synthesis in skeletal muscle during cancer cachexia. Br. J. Cancer 67, 680-685 (1993)). […] Protein synthesis was measured by the incorporation of L-[2,6-^3H] phenylalanine (640 MBq) into acid-insoluble material using a 2 h period in which the muscles were incubated at 37° C. in RPMI/640 without phenol red and saturated with O2:CO2 (19:1). Muscles were then rinsed in non-radioactive medium, blotted and homogenised in 2% perchloric acid. The rate of protein synthesis was calculated by dividing the amount of protein-bound radioactivity by the amount of acid soluble radioactivity. Protein degradation was determined by the release of tyrosine from gastrocnemius muscle over a 2 h period in 3 ml of oxygenated Krebs-Henseleit buffer, pH7.4, containing 5 mM glucose and 0.5 mM cycloheximide.

human β1-AR [2] = molecular target: T1, human β1-AR (Homo sapiens, UniProt P08588); assay: [125I] ZAG binding to crude membranes of CHO-K1 β1 cells
T1 construct: host or cells: CHO-K1
Method: (§1) [^125I] labelling of ZAG. One iodo bead that had been washed and dried was incubated with Na [^125I] (1 mCi per 100 μg protein) for 5 min in PBS, then ZAG (100 μg protein) was added and left for a further 15 min. The reaction was terminated by removal of the iodo bead, while free Na [^125I] was removed using a Sephadex G25 column eluted with 0.1MNaI. The [^125I] ZAG was concentrated against PBS using a Microcon microconcentrator with a filter cut-off of Mr 10,000. The specific activity of the [^125I] ZAG was 8 Cimg protein^1.
(§2) For binding studies cells were sonicated in 2 mM Tris HCl, pH7.5, containing […] and crude total membranes were pelleted by centrifugation (13,000 g; 15 min) at 4° C. Binding studies were carried out at 37° C. by incubating membranes (500 μg protein) in 0.4 ml 50 mM Tris HCl, pH 7.5, containing 0.5 mM MgCl2 for 60 min with various concentrations of [^125I] ZAG (3,000 to 15,000 cpm) in the absence or presence of 100 μM non-labelled ZAG. The membranes were then precipitated by centrifugation at 13000 g for 20 min, the supernatant was removed and the [^125I] bound to the pellet was quantitated using a Packard Corbra Model 5005 Auto-gamma counter. Binding was analysed using non-linear regression analysis (GraphPad Prism, Version 5.04). Specific binding was regarded as the amount of labelled ZAG displaced by non-radioactive ZAG.

human β1-AR [3] = molecular target: T1, human β1-AR; assay: Cyclic AMP production in CHO-K1 cells transfected with β1-AR; assay type: cell-based; settings: any concentration
Method: Binding Studies and Cyclic AMP Determination. CHO-K1 cells transfected with the human β1- and β2-AR obtained from University of Nottingham, UK, while CHOK1 cells transfected with the β3-AR were obtained from Astra Zeneca, Macclesfield, Cheshire, UK. Gene expression was under the control of hygromycin, together with a β-gal reporter construct, selected for resistance to G418. They were maintained in DMEM supplemented with 2 mM glutamine, hygromycin B ([…]), G418 ([…]), and 10% FCS, under an atmosphere of 10% CO2 in air. To determine the effect of agonists on cyclic AMP production, cells were grown in 24-well plates containing 1 ml of nutrient medium.

[4] = tested on: epididymal adipocytes of male Wistar rats; assay: Uptake of 2-deoxy-D-glucose into epididymal adipocytes of ZAG-treated rats; assay type: in vivo, rat; settings: rats treated for 10 days
Method: Glucose Uptake into Adipocytyes. Isolated adipocytes (5×10^4) were washed twice in 1 ml Krebs-Ringer bicarbonate buffer, pH 7.2 (KRBS) and further incubated for 10 min at room temperature in 0.5 ml KRBS containing 18.5 MBq 2-[1-^14C] deoxy-D-glucose and non-radioactive 2-deoxy-D-glucose to a final concentration of 0.1 mM. Uptake was terminated by the addition of 1 ml ice-cold glucose-free KRBS, and the cells were washed three times with 1 ml KRBS, lysed by addition of 0.5 ml 1M NaOH and left for at least 1 h at room temperature before the radioactivity was determined by liquid scintillation counting.

ob/ob mice [5] = assay: Insulin tolerance test in ob/ob mice administered ZAG for 3 days; assay type: in vivo, mouse
Method: An insulin tolerance test was also carried out in ob/ob mice administered ZAG for 3 days (FIG. 23). Animals were administered two doses of insulin (10 and 20 U/kg) by i.p. injection and blood glucose was measured over the next 60 min. […] The glucose disappearance curve for 20 U/kg+PBS was almost identical to 10 U/kg+ZAG, so at this dose level ZAG is reducing the requirement for insulin by 50%, but this can be overcome by giving more insulin.

β3-AR = β3-AR (Homo sapiens, UniProt P13945); assay: [125I] ZAG binding to crude membranes of CHO-K1 β3 cells; parameters: host or cells: CHO-K1
Method: as §1, §2

ob/ob mice [6] = assay: Body weight loss by route of administration of ZAG in ob/ob mice; assay type: in vivo, mouse; settings: for Body weight loss / % of i.v. loss over the same time: 50 ug/day
Method: The goal of the study was to compare the efficacy of ZAG via various routes of administration. Mice were orally administered 50 μg ZAG or PBS (control). The results of are shown in FIGS. 31, 32, 33 (8 day oral ZAG study); 36, 37, 40 (8 day oral ZAG plus propranolol study); and FIGS. 47, 48 (oral ZAG gavage study). As shown in these repeated studies, ZAG was unexpectedly shown to be effective in bringing about weight change when administered orally by simply mixing low doses of ZAG in the drinking water of mice without requiring systemic absorption of administered ZAG. Typical oral dosing of proteins, such as insulin, can require up to 10× (or mega dosing) the intravenous dose to achieve the same level of efficacy and such limited efficacy requires systemic absorption of such proteins.

Sequence of β3-AR (P13945 whole entry): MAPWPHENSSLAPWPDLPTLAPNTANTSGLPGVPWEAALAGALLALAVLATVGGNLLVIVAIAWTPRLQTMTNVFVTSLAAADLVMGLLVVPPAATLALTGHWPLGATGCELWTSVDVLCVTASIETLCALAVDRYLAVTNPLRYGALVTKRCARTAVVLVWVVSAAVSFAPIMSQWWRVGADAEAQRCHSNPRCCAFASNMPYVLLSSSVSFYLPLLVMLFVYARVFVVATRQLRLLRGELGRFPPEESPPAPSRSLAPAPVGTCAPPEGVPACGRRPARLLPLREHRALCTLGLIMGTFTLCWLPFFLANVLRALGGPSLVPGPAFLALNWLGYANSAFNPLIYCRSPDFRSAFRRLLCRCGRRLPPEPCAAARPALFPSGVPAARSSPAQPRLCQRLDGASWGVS
T1 sequence (P08588 whole entry): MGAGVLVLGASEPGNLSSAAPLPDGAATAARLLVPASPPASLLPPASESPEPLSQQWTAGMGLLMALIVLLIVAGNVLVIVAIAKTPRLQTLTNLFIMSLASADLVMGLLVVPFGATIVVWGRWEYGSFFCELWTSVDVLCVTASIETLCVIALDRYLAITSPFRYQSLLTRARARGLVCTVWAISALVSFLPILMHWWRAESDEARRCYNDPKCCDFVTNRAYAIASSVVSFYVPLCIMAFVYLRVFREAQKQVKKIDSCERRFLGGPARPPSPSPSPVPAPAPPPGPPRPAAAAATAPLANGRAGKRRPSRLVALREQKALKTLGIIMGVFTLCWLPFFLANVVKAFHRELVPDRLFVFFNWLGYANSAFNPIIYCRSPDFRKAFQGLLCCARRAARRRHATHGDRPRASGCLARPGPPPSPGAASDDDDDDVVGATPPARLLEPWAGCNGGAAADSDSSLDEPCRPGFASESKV

B1: ZAG: recombinant full length human zinc-α2-glycoprotein (SEQ ID NO: 1) secreted by transfected HEK293F cells; lipid mobilizing factor (protein, listed as Homo sapiens)
chain: QENQDGRYSLTYIYTGLSKHVEDVPAFQALGSLNDLQFFRYNSKDRKSQPMGLWRQVEGMEDWKEDSQLQKAREDMETLKDIVEYYNDSNGSHVLQGRFGCEIENNRSSGAFWKYYYDGKDYIEFNKEIPAWVPFDPAAQITKQKWEAEPVYVQRAKAYLEEECPATLRKYLKYSKNILDRQDPPSVVVTSHQAPGEKKKLKCLAYDFYPGKIDVHWTRAGQVQEPELRGDVLHNGNGTYQSWVVVAVPPQDTAPYSCHVQHSSLAQPLVVPWEAS
[1]
  decrease in protein degradation: 60%
  protein synthesis in soleus muscle: over a two-fold increase
Human β1-AR [2]
  binding to the β1-AR: no binding
Human β1-AR [3]
  cyclic AMP production: no increase in cyclic AMP
[4]
  uptake of 2-deoxyglucose into epididymal adipocytes: significant increase
ob/ob mice [5]; 10 U/kg insulin+ZAG vs 20 U/kg+PBS
  reduction of the requirement for insulin: 50%
ob/ob mice [5]; insulin 10 U/kg i.p.
  sensitivity to insulin: increased sensitivity to insulin
β3-AR
  Bmax at β3-AR relative to β2-AR: about three times
  Kd at β3-AR, fold lower than that of CGP12177: about 100 fold
β3-AR; single freeze/thaw cycle
  effect of freeze-thawing on binding to β3-AR: eliminated binding
ob/ob mice [6]; after 5 days of dosing
  efficacy of lowering of urinary glucose, oral vs i.v.: equally as good
ob/ob mice [6]; intraveneous, 20 Days
  Body weight loss: −9.0%
ob/ob mice [6]; oral-casein (casein with ZAG in drinking water), 8 Days
  Body weight loss: −3.4%
ob/ob mice [6]; oral-casein, 8 Days
  % of i.v. loss over the same time: 57%
ob/ob mice [6]; oral-casein, 20 Days
  % of i.v. loss over the same time: 76%
  Body weight loss: −6.8%
ob/ob mice [6]; oral-gavage (directly into the stomach), 8 Days
  Body weight loss: −2.3%
ob/ob mice [6]; oral-gavage, 8 Days
  % of i.v. loss over the same time: 38%
ob/ob mice [6]; oral-water (in the drinking water), 8 Days
  Body weight loss: −4.3%
ob/ob mice [6]; oral-water, 8 Days
  % of i.v. loss over the same time: 72%
ob/ob mice [6]; oral-water, 20 Days
  % of i.v. loss over the same time: 68%
  Body weight loss: −6.1%
ob/ob mice [6]; same dose
  weight-loss efficacy of oral dosing relative to intravenous administration: ≤ 75%
